Patent US7662404B2, “Transdermal delivery system for dried particulate or lyophilized peptides and polypeptides” (TransPharma Medical Ltd., priority 2002, dated 2010)
Like-named read-outs stand apart in the source and are kept apart here.

Tests used:
[1] = Plasma sCT after SC injection or printed patch with ViaDerm in pigs (Example 10); format: in vivo; settings: for bioavailability: compared to SC
Procedure: Pigs (males, 10-12 kg, Large white) were treated as follows:
Group 1: 1 ml of salmon calcitonin containing 16.7 μg peptide (Miacalcin, Novartis Pharma Ag, Basle, Switzerland) was injected subcutaneously (S.C) to each pig (total 3 pigs).
Group 2: Each pig underwent 2 ViaDerm applications on one site on the back (150 micro-channels per cm^2). Patches of 400 μg sCT/patch of 1.4 cm^2 were placed on the treated area (total 3 pigs).
Group 3: Each pig underwent 2 ViaDerm applications on one site on the back (150 micro-channels per cm^2). Patches of 200 μg sCT/patch of 1.4 cm^2 were placed on the treated area (total 3 pigs).
In order to determine sCT concentrations in pig plasma an ELISA assay was performed (Diagnostic Systems Laboratories, Inc. Webster, Tex., USA).

[2] = tested on: plasma Ca++; experiment: In vivo bioactivity of sCT: plasma Ca++ concentrations in pigs (Example 10)
Procedure: In vivo bioactivity of sCT was evaluated by measuring plasma Ca^++ concentrations. […] Transdermal administration from the printed patches yielded a ˜20% decrease in Ca^++ concentrations, regardless of sCT dose. Thus, sCT delivered transdermally remained intact and biologically active.

[3] = tested on: blood glucose; experiment: Bioactivity of insulin in diabetic rats: blood glucose after printed patches or SC (Example 6); format: in vivo
Procedure: (§1) ViaDerm apparatus was used. The density of the microelectrode array used in these studies was 100 microelectrodes/cm^2. The device was applied twice on each location, so the density of the micro channels was 200/cm^2. The skin was treated with an applied voltage of 330V, frequency of 100 kHz, two bursts, 700 microsecond burst length, and no current limitation.
Male rats (300-325, Sprague Dawley, Harlan laboratories Ltd., Israel) were deprived of food and received water as libitum 48 hr prior to patch applications. Streptozotocin (55 mg/kg in citric buffer, 0.1 M, pH 4.5) was injected intraperitonally (IP) to the rats 24 hr prior to patch applications in order to induce diabetes. […] The diabetic rats were premedicated with IP injections of 10% ketamin/2% xylazine solution at a ratio of 70:30, 1 ml/kg. Anesthesia was maintained with either isofluorane or halothane gas. The abdominal skin hair was shaved carefully, and was cleaned with isopropyl alcohol. After 30 min, transepidermal water loss measurements (TEWL, Dermalab Cortex Technology, Hadsund, Denmark) were performed to check skin integrity. Skin micro-channeling was performed by the use of the ViaDerm instrument with the conditions described above. TEWL was then measured again to control the operation. The treated skin was covered with Lispro (HUMALOG®) or Regular (HUMULIN®R) 1.5 IU insulin-printed patches. SC injections of 0.4 IU served as a positive control. Blood samples were withdrawn from the tip of the rat's tail at 0, 2, 4, and 6 hr post application, and glucose level was determined.

[4] = rhGH in serum after printed patches and ViaDerm, hypophysectomized rats (Example 4); format: in vivo
Procedure: The materials and methods applied in this example were similar to those in EXAMPLE 3 except from the following points: • a) The animals were treated with ELTROXIN™ and hydrocortisone only until 10 days before initiating the treatments. • b) The test article was a printed patch of rhGH in two doses: 0.15 mg/patch and 0.5 mg/patch. The patches were composed of a backing liner (DOW BLF2080™, The Dow Chemical Company, MI, USA) on which drops of GENOTROPIN® were evenly placed. All the patches contained 144 drops over an area 1.4×1.4 cm^2. The printed patch was attached to the skin by a fixing patch, 2 cm×2 cm with 300 μm thick (wet) glue (DURO-TAK™ 3872516; National Starch & Chemical Pty Ltd, NSW, Australia) on the backing liner. • c) The experimental setup included 2 groups of 3 rats each: • Group 1: Treated with ViaDerm+one 0.15 mg printed patch. • Group 2: Treated with ViaDerm+one 0.5 mg printed patch. Results 1. Printed Patches

[5] = Bioavailability of rhGH printed patches with ViaDerm in guinea pigs (Example 5); format: in vivo
Procedure: as §1, with “ViaDerm micro-channeling” for “ViaDerm”
(§2) Male Guinea pigs (500-800 grams, Dunkin Hartley, Harlan laboratories Ltd., Israel) and Male rats (350-400, Sprague Dawley, Harlan laboratories Ltd., Israel), were premedicated with IP injections of 10% ketamin/2% xylazine solution at a ratio of 70:30, 1 ml/kg. Anesthesia was maintained with either isofluorane or halothane gas. The abdominal skin hair was shaved carefully, and was cleaned with isopropyl alcohol. After 30 min, transepidermal water loss, measurements (TEWL, Dermalab Cortex Technology, Hadsund, Denmark) were performed to check skin integrity. Skin micro channeling was performed by the use of the ViaDerm instrument with the conditions described above. TEWL was then measured again to control the operation. The treated skin was covered with the rhGH patches and blood samples were withdrawn from a preinserted carotid cannula in guinea pig or from the rat's tail at predetermined times post application. The serum was separated by centrifugation and analyzed for rhGH by Elisa kit (DSL-10-1900, Diagnostic Systems Laboratories, Inc. Webster, Tex., USA). The transdermal delivery of rhGH was compared to that of subcutaneous hGH delivery.

[6] = tested on: IGF-1; experiment: IGF-1 in the serum of hypophysectomized rats after rhGH (Example 3); format: in vivo
Text: GH is produced by the pituitary gland (hypophysis) and acts in several ways and on several targets. A distinctive role attributed to GH is the induction of IGF-1 production by liver cells (hepatocytes). As GH is the main trigger for the production of IGF-1, the activity of GH can be detected by measuring IGF-1 levels in the blood. GH levels in the blood can be directly analyzed as well.
Results 1. rhGH in the Serum

[7] = rat, in vivo
Text: • Animals: Rats, males, 250 gr, Sprague Dawley, hypophysectomized at Harlan USA labs. […] This fraction was spread on a hypoallergenic clear medical tape (Kendall Curity®, Emergency Medical Products Inc., USA) in doses specified below, and placed directly onto the skin as a transdermal patch. […]
The transdermal groups (1 and 2) received a treatment including: Shaving, drying, baseline Trans Epidermal Water Loss measurement (TEWL; DERMALAB® Cortex Technology, Hadsund, Denmark), two ViaDerm applications of 200 micropores/cm^2 (placebo for Group 2), second TEWL measurement and patch application. At the end of the study all animals were sacrificed by an IV overdose of sodium-pentobarbital (140 mg/kg). • ViaDerm parameters: burst length—500 μsec, starting amplitude—250 V, number of bursts—5 and applications per site—2 (200 micropores/cm^2). • Blood sampling: Blood samples (0.5 ml/rat) were withdrawn at 6 time points, t=0, 2, 4, 6, 12 and 24 hours, from the tail end of anesthetized rats (20 mg/rat ketamine, intramuscular). • Serum analysis: rhGH in the serum was detected using an Elisa kit (DSL-10-1900; Diagnostic Systems Laboratories, TX, USA) specific for rhGH. […] IGF-1 was detected according to RIA protocol (Endocrine, Vol. 16, no. 1, 1-6, October 2001). […]

[8] = Bioavailability of rhGH printed patches with ViaDerm in normal rats (Example 5); format: in vivo
Procedure: as §1, with “ViaDerm micro-channeling” for “ViaDerm”
as §2

[9] = diabetic rats, 1.5 IU insulin-printed patch on ViaDerm treated skin
[10] = diabetic rats, 1.5 IU insulin-printed patch on ViaDerm treated skin, from about 400 mg/dl
[11] = hyperglycemic rats, transdermal
[12] = Group 1: ViaDerm + 0.15 mg printed patch
[13] = Group 2: ViaDerm + 0.5 mg printed patch
[14] = Transdermal printed patch, dose 50 (mg)
[15] = Transdermal printed patch, dose 150 (mg)
[16] = Transdermal printed patch, dose 300 (mg)
[17] = Transdermal printed patch, dose 400 (mg)
[18] = Group 1: ViaDerm + ~0.8 mg rhGH powder patch
[19] = Group 3: SC injection 150 μg/rat
[20] = Transdermal printed patch, dose 75 μg
[21] = Transdermal printed patch, dose 150 μg
[22] = Transdermal printed patch, dose 300 μg
[23] = Transdermal printed patch, dose 450 μg

## CC(C)C[C@H](NC(=O)[C@H](CCCCN)NC(=O)CNC(=O)[C@H](CC(C)C)NC(=O)[C@@H](NC(=O)[C@@H]1CSSC[C@H](N)C(=O)N[C@@H](CO)C(=O)N[C@@H](CC(N)=O)C(=O)N[C@@H](CC(C)C)C(=O)N[C@@H](CO)C(=O)N[C@@H]([C@@H](C)O)C(=O)N1)C(C)C)C(=O)N[C@@H](CO)C(=O)N[C@@H](CCC(N)=O)C(=O)N[C@@H](CCC(=O)O)C(=O)N[C@@H](CC(C)C)C(=O)N[C@@H](Cc1c[nH]cn1)C(=O)N[C@@H](CCCCN)C(=O)N[C@@H](CC(C)C)C(=O)N[C@@H](CCC(N)=O)C(=O)N[C@H](C(=O)N[C@@H](Cc1ccc(O)cc1)C(=O)N1CCC[C@H]1C(=O)N[C@@H](CCCNC(=N)N)C(=O)N[C@H](C(=O)N[C@@H](CC(N)=O)C(=O)N[C@H](C(=O)NCC(=O)N[C@@H](CO)C(=O)NCC(=O)N[C@H](C(=O)N1CCC[C@H]1C(N)=O)[C@@H](C)O)[C@@H](C)O)[C@@H](C)O)[C@@H](C)O [sCT]
[1]; Printed patch 400 μg
  Amount delivered: 31.92 µg
  bioavailability: 7.98%
[1]; S.C. 16.7 μg, neck
  AUC: 206.377 ± 63.647 pg·min/mL
[1]; male, Large white, pig, plasma, other: transdermal printed patch on ViaDerm-treated skin, 200 ug, patch 200 μg, ViaDerm, back
  Cmax: 2.33 ± 0.673 ng/mL
[1]; male, Large white, pig, plasma, other: transdermal printed patch on ViaDerm-treated skin, 200 ug, patch 200 μg, read-out: bioavailability
  bioavailability: 10%
[1]; male, Large white, pig, plasma, other: transdermal printed patch on ViaDerm-treated skin, 400 ug, Printed patch 400 μg, ViaDerm, back
  Cmax: 2.82 ± 1.74 ng/mL
[1]; male, Large white, pig, plasma, other: transdermal printed patch on ViaDerm-treated skin, 400 ug, Printed patch 400 μg, read-out: bioavailability
  bioavailability: 8%
[1]; male, Large white, pig, plasma, sc, 16.7 ug, S.C. 16.7 μg, neck
  Cmax: 2.21 ± 1.12 ng/mL
[1]; patch 200 μg
  Amount delivered: 20.12 µg
  bioavailability: 10.06%
[2]; SC administration 16.7 μg
  decrease of plasma Ca++ concentrations from time 0: ~25%
[2]; transdermal from printed patches, regardless of sCT dose (200 or 400 μg)
  decrease in plasma Ca++ concentrations: ~20%

## HUMALOG®: human recombinant insulin Lispro, 100 IU/ml (Lilly), used in 1.5 IU printed patches
[3]; [9]
  blood glucose level after 6 hr: about 30 mg/dl
[3]; [10]
  blood glucose level three hours following application: about 70 mg/dl

## HUMULIN®: human recombinant insulin, regular, 100 IU/ml (Lilly), used in 1.5 IU printed patches
[3]; [9]
  blood glucose level after 6 hr: about 30 mg/dl
[3]; [10]
  blood glucose level three hours following application: about 70 mg/dl

## insulin: insulin given as SC injection of 0.4 IU, positive control; product not specified
[3]; diabetic rats, SC injection 0.4 IU
  blood glucose level after 6 hr: about 200 mg/dl
[3]; diabetic rats, SC injection 0.4 IU, from about 400 mg/dl
  blood glucose level three hours following administration: about 70 mg/dl
[3]; [11]
  period of normal glucose level: 4 to 6 h
  time to normal glucose level (100 mg/dl to 200 mg/dl glucose): 1 to 3 h

## rhGH: recombinant human growth hormone, 22 kDa polypeptide; GENOTROPIN (Pharmacia & Upjohn) with mannitol
[4]; [12]
  AUC absolute value: 1594 ng·h/mL
  time of peak rhGH serum level: 4 h
[4]; [13]
  AUC absolute value: 6563 ng·h/mL
  time of peak rhGH serum level: 6 h
[5]; SC, dose 50 (mg printed; reference)
  Bioavailability (% of SC): 100 % of SC
[5]; SC, dose 50 (mg)
  AUC: 176 ng·h/mL
[5]; [14]
  AUC: 57 ng·h/mL
  Bioavailability (% of SC): 32.4 % of SC
[5]; [15]
  AUC: 175 ng·h/mL
  Bioavailability (% of SC): 33.1 % of SC
[5]; [16]
  AUC: 362 ng·h/mL
  Bioavailability (% of SC): 34.3 % of SC
[5]; [17]
  AUC: 404 ng·h/mL
  Bioavailability (% of SC): 28.7 % of SC
[6]; [18]
  IGF-1 in the serum: elevation of IGF-1
  time of maximal average IGF-1 concentration: 12 h
[6]; Group 2: rhGH patch on intact skin
  IGF-1 in the serum: low level of IGF-1
[6]; [19]
  IGF-1 in the serum: anticipated elevation of IGF-1
  time of peak IGF-1 concentration: 12 h
[7]
  bioavailability compared to the SC group: 33.8%
[7]; sc
  AUC normalized for 0.1 mg rhGH: 1128 µg·h/mL
[8]; SC, dose 150 μg
  AUC: 489 ng·h/mL
[8]; SC, dose 150 μg (reference)
  Bioavailability (% of SC): 100 % of SC
[8]; [20]
  AUC: 184 ng·h/mL
  Bioavailability (% of SC): 75.3 % of SC
[8]; [21]
  AUC: 376 ng·h/mL
  Bioavailability (% of SC): 76.9 % of SC
[8]; [22]
  AUC: 727 ng·h/mL
  Bioavailability (% of SC): 74.3 % of SC
[8]; [23]
  AUC: 884 ng·h/mL
  Bioavailability (% of SC): 60.3 % of SC
